Data from patent publication US20060058231A1 (Xencor, published 2006).
Changes are numbered by the printed parent chain. Numbers in names are those of the source.

B1: BMP-7 variant Q53A (ligand)
chain: STGGKQRSQNRSKTPKNQEALRMASVAENSSSDQRQACKKHELYVSFRDLGWADWIIAPEGYAAYYCEGECAFPLNSYMNATNHAIVQTLVHFINPETVPKPCCAPTQLNAISVLYFDDSSNVILKKYRNMVVRACGCH
B2: BMP-7 variant R134L (ligand)
chain: B1 chain with A53Q, R134L
B3: BMP-7 variant R134P (ligand)
chain: B1 chain with A53Q, R134P
B4: BMP-7 variant R134S (ligand)
chain: B1 chain with A53Q, R134S
B5: BMP-7 variant S77P (ligand)
chain: B1 chain with A53Q, S77P
B6: BMP-7 variant S77T (ligand)
chain: B1 chain with A53Q, S77T
B7: BMP-7 variant 504 (Y65N/S120D) (ligand)
chain: B1 chain with A53Q, Y65N, S120D
notes: Expressed from the full-length Image clone and processed to the mature dimer; Purified from conditioned media on SP-sepharose; also called v504
B8: BMP-7 variant 526 (K39S/S120D/R134E) (ligand)
chain: B1 chain with K39S, A53Q, S120D, R134E
notes: Expressed from the full-length Image clone and processed to the mature dimer; Purified from conditioned media on SP-sepharose; also called v526
B9: BMP-7 variant 565 (Y65N/F93T/R129D) (ligand)
chain: B1 chain with A53Q, Y65N, F93T, R129D
notes: Expressed from the full-length Image clone and processed to the mature dimer; Purified from conditioned media on SP-sepharose; also called v565
B10: wild type human BMP-7 (R&D Systems) (ligand)
chain: B1 chain with A53Q
notes: Bought recombinant protein; It describes BMPs as dimers; also called wt; recombinant human BMP-7
B11: BMP-7 variant M23N (ligand)
chain: B1 chain with M23N, A53Q
B12: BMP-7 variant Q53G (ligand)
chain: B1 chain with A53G
B13: BMP-7 variant I86D (ligand)
chain: B1 chain with A53Q, I86D
B14: BMP-7 variant Q53H (ligand)
chain: B1 chain with A53H
B15: BMP-7 variant 504 (Y65N/S120D) (ligand)
chain: B1 chain with A53Q, Y65N, S120D
notes: Purified, unlabeled variant; also called v504
B16: BMP-7 variant 526 (K39S/S120D/R134E) (ligand)
chain: B1 chain with K39S, A53Q, S120D, R134E
notes: Purified variant; also called v526
B17: BMP-7 variant 565 (Y65N/F93T/R129D) (ligand)
chain: B1 chain with A53Q, Y65N, F93T, R129D
notes: Purified variant; also called v565
B18: recombinant human BMP-7 (R&D Systems) (ligand)
chain: B1 chain with A53Q
notes: Bought protein; also called wild type human BMP-7 (R&D Systems); wt

biological target: T1, ActRIIa receptor-Fc fusion (UniProt P27037 20-134, limits assumed); test: ELISA-like, fixed volume of conditioned media, receptor-Fc
T1 construct: BMP receptor-Fc fusion, detected with anti-human IgG-HRP
T1 sequence (P27037 20-134 limits assumed): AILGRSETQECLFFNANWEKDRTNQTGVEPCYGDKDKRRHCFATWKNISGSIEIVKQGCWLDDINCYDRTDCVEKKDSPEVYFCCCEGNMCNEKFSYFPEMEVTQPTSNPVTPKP

Binder	ActRIIa binding relative to wild type
B1	0.84 relative to wt = 1.0
B2	0.99 relative to wt = 1.0
B3	0.89 relative to wt = 1.0
B4	1.17 relative to wt = 1.0
B5	0.92 relative to wt = 1.0
B6	0.99 relative to wt = 1.0

biological target: T2, BMPRIb receptor-Fc fusion (UniProt O00238 14-126); test: as above
T2 construct: BMP receptor-Fc fusion, detected with anti-human IgG-HRP; also called ALK-6
T2 sequence (looked up): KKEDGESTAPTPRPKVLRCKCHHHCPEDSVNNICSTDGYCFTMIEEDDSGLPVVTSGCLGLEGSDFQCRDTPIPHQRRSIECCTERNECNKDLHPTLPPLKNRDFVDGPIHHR

Binder	BMPRIb binding relative to wild type
B1	0.65 relative to wt = 1.0
B2	1.02 relative to wt = 1.0
B3	0.6 relative to wt = 1.0
B4	1.15 relative to wt = 1.0
B5	0.95 relative to wt = 1.0
B6	0.9 relative to wt = 1.0

biological target: T3, BMPRIa receptor-Fc fusion (UniProt P36894 24-152, limits assumed); test: as above
T3 construct: BMP receptor-Fc fusion; also called ALK-3
T3 sequence (P36894 24-152 limits assumed): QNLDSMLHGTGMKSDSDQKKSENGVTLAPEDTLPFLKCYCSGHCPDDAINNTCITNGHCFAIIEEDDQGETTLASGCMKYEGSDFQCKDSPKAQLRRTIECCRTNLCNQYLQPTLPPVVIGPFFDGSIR

Binder	BMPRIa binding relative to wild type
B1	0.54 relative to wt = 1.0
B2	1.03 relative to wt = 1.0
B3	0.54 relative to wt = 1.0
B4	1.1 relative to wt = 1.0
B5	0.68 relative to wt = 1.0
B6	0.94 relative to wt = 1.0

biological target: T4, BMPRII receptor-Fc fusion (UniProt Q13873 27-151, limits assumed); test: as above
T4 construct: BMP receptor-Fc fusion, detected with anti-human IgG-HRP
T4 sequence (looked up): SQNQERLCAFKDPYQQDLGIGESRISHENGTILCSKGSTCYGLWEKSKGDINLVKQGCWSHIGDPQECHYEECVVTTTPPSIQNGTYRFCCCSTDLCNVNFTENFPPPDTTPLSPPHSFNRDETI

Binder	BMPRII binding relative to wild type
B1	0.26 relative to wt = 1.0
B2	1 relative to wt = 1.0
B3	0.5 relative to wt = 1.0
B4	1.07 relative to wt = 1.0
B5	0.85 relative to wt = 1.0
B6	0.93 relative to wt = 1.0

biological target: T5, ActRIIa Fc fusion (R&D Systems) (UniProt P27037 20-134, limits assumed); test: AlphaScreen competition; EC50 relative to wild type BMP-7 (R&D Systems)
T5 construct: Bought receptor/Fc fusion; not shown: Fc part of the bought fusion
Protocol: (§1) The Y65N/S120D variant of BMP-7 was also biotinylated for use in AlphaScreen assays using NHS-biotin. Bioactivity of the biotinylated protein was confirmed. AlphaScreen assays were performed to determine the binding affinity of selected BMP-7 variants for Fc fusions of the receptors BMPRIa, BMPRIb, ActRIIa, and BMPRII and the inhibitor noggin (R&D Systems). AlphaScreen assays were also performed to determine the affinity of selected variants for an anti-BMP-7 monoclonal antibody (R&D Systems mAb 3541). In all cases, 12-point binding curves were obtained in triplicate. Each data point corresponds to the luminescence produced from a solution comprising 10 uL of serially diluted BMP-7 variant, 10 uL receptor, inhibitor, or antibody, 10 uL biotinylated BMP-7, 10 uL AlphaScreen™ acceptor beads, and 10 uL AlphaScreen™ donor beads. Prism was used to calculate EC50 values for selected experiments.

T5 sequence (P27037 20-134 limits assumed): as the sequence (P27037 20-134 limits assumed) above

Binder	Fold change vs. wt [fold]
B7	0.445
B8	0.416
B9	0.397

biological target: T6, BMPRIb Fc fusion (R&D Systems) (UniProt O00238 14-126); test: as above
T6 construct: Bought receptor/Fc fusion; also called ALK-6; not shown: Fc part of the bought fusion
T6 sequence (looked up): T2 sequence (looked up)
Protocol: as §1

Binder	Fold change vs. wt [fold]
B7	0.371
B8	0.727
B9	0.448

biological target: T7, noggin Fc fusion (R&D Systems) (UniProt Q13253 28-232, limits assumed); test: as above
T7 construct: Bought noggin/Fc fusion; not shown: Fc part of the bought fusion
T7 sequence (looked up): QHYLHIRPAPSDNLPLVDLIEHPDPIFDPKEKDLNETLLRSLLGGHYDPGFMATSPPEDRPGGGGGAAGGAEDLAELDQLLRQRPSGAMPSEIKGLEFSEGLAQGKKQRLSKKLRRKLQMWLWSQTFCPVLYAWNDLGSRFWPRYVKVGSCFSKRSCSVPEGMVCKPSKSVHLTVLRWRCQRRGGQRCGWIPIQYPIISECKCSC
Protocol: as §1

Binder	Fold change vs. wt [fold]
B7	1.19
B8	5.83
B9	0.137

biological target: T8, BMPRII Fc fusion (R&D Systems) (UniProt Q13873 27-151, limits assumed); test: as above
T8 construct: Bought receptor/Fc fusion; not shown: Fc part of the bought fusion
T8 sequence (looked up): T4 sequence (looked up)
Protocol: as §1

Binder	Fold change vs. wt [fold]
B7	0.969
B8	0.607
B9	1.78

biological target: T5, ActRIIa Fc fusion (R&D Systems); test: AlphaScreen competition against biotinylated Y65N/S120D BMP-7
Protocol: as §1

Binder	EC50 [mg/L]
B10	0.107
B7	0.0475
B8	0.0445
B9	0.0424

biological target: T6, BMPRIb Fc fusion (R&D Systems); test: as above
Protocol: as §1

Binder	EC50 [mg/L]
B10	0.0499
B7	0.0185
B8	0.0363
B9	0.0224

biological target: T7, noggin Fc fusion (R&D Systems); test: as above
Protocol: as §1

Binder	EC50 [mg/L]
B10	2.85
B7	3.4
B8	16.7
B9	0.392

biological target: T8, BMPRII Fc fusion (R&D Systems); test: as above
Protocol: as §1

Binder	EC50 [mg/L]
B10	0.23
B7	0.222
B8	0.139
B9	0.409

biological target: T9, ActRIIa receptor/Fc fusion (R&D Systems) (UniProt P27037 20-134, limits assumed); test: plate direct binding assay, receptor-Fc detection, 12-point dilution of conditioned media
T9 construct: not shown: Fc portion of the fusion
Protocol: (§2) The affinity of human and variant BMP-7 for several BMP receptors (ActRIa, BMPRIb, ActRIIa, and BMPRII) was measured using an ELISA-like assay, described below. 96-well plates were coated with a capture antibody (R&D Systems BMP-7 ELISA Duoset DY354, part #840971) by diluting the antibody to 2 μg/mL in PBS, applying 50 μL/well, and incubating overnight or over the weekend at 4° C., in a humidified chamber. Excess liquid was removed from each plate. The plates were blocked by adding 175 μL blocking solution (1% BSA and 5% sucrose in PBS) to each well and incubating 1-2 hours at room temperature in a humidified chamber. The plates were then washed using an automated plate washer. 50 μL of BMP-7 containing solution (for example, diluted conditioned media obtained from the BMP-7 expression protocol above, or purified recombinant human BMP-7 of a known concentration) was added to each well and incubated 1.5-2 hours at room temperature in a humidified chamber. The plates were then washed using an automated plate washer. 50 μL of 5 μg/mL BMP receptor-Fc fusion in PBS was added to each well and incubated 1.5 hours at room temperature in a humidified chamber. The plates were then washed using an automated plate washer. 50 μL of 1:10,000 diluted anti-human IgG-HRP conjugate in secondary antibody dilution buffer (1% BSA in PBS, filtered through a 0.2 […] filter) was added to each well and incubated 30 minutes at room temperature in a humidified chamber. The plates were then washed using an automated plate washer. 50 μL of pre-mixed TMB substrate (BD Pharmingen #555214) was added to each well and incubated for 10-20 minutes at room temperature in the dark. 25 μL of 2N H₂SO₄ was added to each well. Absorbance readings at 450 nm were taken using a 540 nm wavelength correction.
(§3) To further characterize receptor binding, dose-response binding assays, using 12-point serial dilutions from conditioned media, were conducted for selected Library 1 variants.

T9 sequence (P27037 20-134 limits assumed): as the sequence (P27037 20-134 limits assumed) above

Binder	fold increased affinity relative to wild type [fold]
B11	~10
B12	~10

biological target: T10, BMPRII receptor/Fc fusion (R&D Systems) (UniProt Q13873 27-151, limits assumed); test: as above
T10 construct: not shown: Fc portion of the fusion
T10 sequence (looked up): T4 sequence (looked up)
Protocol: as §2, §3

Binder	fold reduced affinity relative to wild type [fold]
B13	~10
B14	~10

biological target: T11, anti-BMP-7 antibodies of the commercial ELISA (R&D Systems ELISA Duoset Cat#DY354); test: sandwich ELISA (R&D Systems BMP7 ELISA Cat#DY354), BMP-7 protein titrated, % ELISA signal; the EC50 column carries no unit, the concentration axis is in ug/mL
T11 construct: also called antibody; ELISA antibody

Binder	EC50 [mg/L]
B15	0.00821
B16	0.00119
B17	0.00688
B18	0.00112
